Test results as given in patent US7387779B2, “Anti-angiogenic proteins and fragments and methods of use thereof” (Beth Israel Deaconess Medical Center, priority 1998, dated 2008).

Columns and labels:
C-PAE cells [1] = test: Cell attachment assay; format: cell-based, bovine
Description: The attachment of HUVECs to Tumstatin-coated plates in the presence of integrin subunits α1 through α6, β1, and αvβ3 integrin blocking antibody was examined. This assay was performed according to the method of Senger et al. (Senger, D. R. et al, 1997, Proc. Natl. Acad. Sci. USA 94:13612-7), with minor modification. 96-well plates were coated with either human Tumstatin, mouse laminin-1, or human Type IV collagen (Collaborative Biomedical Prods., Bedford, Mass., USA) at a concentration of 10 μg/ml overnight at 37° C. Vitronectin (Collaborative Biomed. Prods.) at a concentration of 0.5 μg/ml was then used to coat the plates. The remaining protein binding sites were blocked with 100 mg/ml of BSA (Sigma Chemical Co., St. Louis, Mo., USA) in PBS for 2 hours. HUVEC cells were grown to subconfluence (70-80%) in EGM-2 medium, gently trypsinized and resuspended in serum-free medium (1.5×10^5 cells/ml). The cells were mixed with 10 μg/ml of either mouse IgG, (control) (Life Technologies/Gibco BRL, Gaithersberg, Md., USA) or antibody (mouse monoclonal antibody to the human β1 integrin (clone P4C10) (Life Technologies/Gibco BRL); monoclonal antibody to human integrins α1 through α.6 (CHEMICON Int'l, Temecula, Calif., USA); αvβ3 integrin (clone LM609) (CHEMICON Int'l) and incubated for 15 minutes at room temperature, with gentle agitation. One hundred microliters of the cell suspension was then added to each well and incubated for 45 minutes at 37° C. Unattached cells were removed by washing, and the number of attached cells were counted after staining with methylene blue. C-PAE cells were used in separate experiments, following the above procedure.
To determine the attachment of C-PAE cells to plates coated with the Tumstatin deletion mutants, the cell attachment assay was performed as described above (see, e.g., Example 28). Rabbit antibody raised against Tum-4 was prepared as previously described (Kalluri et al., 1997, J. Clin. Invest. 99:2470-8). Goat anti-rabbit IgG antibody conjugated with horseradish peroxidase was purchased from Sigma Chemical Company (St. Louis, Mo., USA). […] Plates coated with Tum-1 (FIG. 36A) were also treated with anti-Tum-4 antibody (1:200 dilution) to block the previously reported (Shahan et al, 1999, Cancer Res. 59:4584-90) αvβ3 binding site, as well as the αvβ5 binding site.
Cell Attachment Activity: Cell attachment using endothelial cells was performed as described above. HUVEC or C-PAE cells were incubated with monoclonal anti-human integrin antibodies, control mouse IgG (10 μg/ml), or synthetic peptide, plated onto pre-coated 96-well plates, and the number of cells attaching to the plates was determined using measurement of methylene blue staining at OD655. […] CNGRC peptide was used as a control.
The cell attachment assay was performed as described above.
Tumstatin produced in 293 human embryonic kidney cells was used to coat tissue culture plates. […] PBS and BSA served as positive and negative controls, respectively.

C-PAE cells [2] = test: MTT cell viability assay; format: cell-based, bovine
Description: The pro-apoptotic activity of Tumstatin N-53 was examined in C-PAE cells. Cell viability was assessed by MTT (3-(4,5-dimethylthiazol-2-yl)-2-,5-diphenyl tetrasolium bromide) assay (Sugiyama, H. et al., 1998, Kidney Int. 54:1188-96). This assay is a quantitative calorimetric analysis for cell survival based on the ability of living cells to cleave the tetrasolium ring in active mitochondria. C-PAE cells (7,000 cells perwell) were plated to a 96-well plate in 10% FCS containing DMEM. The next day, either TNF-α (positive control, 80 ng/ml), or varying concentrations of Tumstatin or Tumstatin N-53 was added to the wells and incubated for 24 hours. MTT solution (5 mg/ml; CHEMICON International, Temecula, Calif., USA) was then added to the wells at a rate of 10 μl/well and incubated at 37° C. for 4 hours. Acid-isopropanol was added and mixed thoroughly. The absorbance was measured in a microplate reader (Bio-Rad, Hercules, Calif., USA) at 590 nm.
The MTT assay was used to evaluate cell viability in C-PAE endothelial cells and WM-164 melanoma cells after treatment with Tumstatin, Tum-1, Tum-2, Tum-3 and Tum-4. The results are shown in FIGS. 34A and 34B, which are a pair of graphs showing the effect of increasing concentration (x-axis) of Tumstatin, Tum-1, Tum-2, Tum-3 and Tum-4 on the cell viability (y-axis) of C-PAE cells (FIG. 34A) and WM-164 cells (FIG. 34B). Each point represents the mean ±the standard error of the mean for triplicate wells.
To further evaluate the mechanism of T3 peptide on endothelial cell proliferation, the effect of T3 peptide on cell cycle progression was analyzed. In the growth arrested and contact inhibited cells (0 hour), 4.1% of cells were in S phase. […] This was true even at a maximal dosage of 100 μg/ml. The effect of the T3 peptide was dose-dependent, however, with the percentage of cells in S phase at 21.4% at 10 μg/ml, and 20.5% at 25 μg/ml. The percentage of cells in G0/G1 phase was 88.3% at 0 hour, 53.4% for the bFGF control, and 57.6%, 57.6% and 71.0% for treatments with T1, T6 and T3 peptide, respectively. […] Apoptotic Activity: Peptides T2, T3, T4, T5 and T6 (10 μg/ml concentration) were tested for their effect of viability of C-PAE cells using the MTT assay, as described in Examples 32 and 36 above. The results are shown in FIG. 43D, which is a histogram showing cell viability as measured at OD595 (y-axis), and treatments with the synthetic peptides (x-axis). […] TNF-α (100 ng/ml) was used to serve as a positive control in inducing endothelial cell apoptosis.
Cell viability was measured by MTT assay, as described above.

LQRFTTMPFLFCNVNDVCNF [T3]
attachment to T3-coated plates with anti-αv or anti-β1 integrin antibody (C-PAE cells [1]): did not inhibit
attachment to T3 peptide-coated plates with anti-β3 integrin antibody (C-PAE cells [1]): inhibited by a preincubation with anti-β3 integrin antibody
inhibition of cell attachment to Tum-4-coated plates by peptide (C-PAE cells [1]): failed to inhibit
inhibition of cell attachment onto Tum-5-coated plates by peptide (C-PAE cells [1]; 2.5 μg/ml peptide): significantly inhibited
inhibition of cell attachment to Tumstatin-coated plates by peptide (C-PAE cells [1]; 10 μg/ml peptide, 293-produced Tumstatin coating): 46.4%
binding to vitronectin-coated plates (2.5 μg/ml) in the presence of peptide (C-PAE cells [1]; 0.1, 1.0, 10.0 μg/ml peptide): not inhibited
effect on cell viability (C-PAE cells [2]): significantly decrease cell viability

B1: Tum-4: residues 181 to 244 of Tumstatin (SEQ ID NO:25) (protein)
chain: EFRASPFLECHGRGTCNYYSNSYSFWLASLNPERMFRKPIPSTVKAGELEKIISRCQVCMKKRH
modifications: Tum-4 (amino acids 181-244 of SEQ ID NO10)
inhibition of attachment of C-PAE cells to coated plates by αvβ3 antibody (C-PAE cells [1]; label = plate coating): 62.6%
inhibition of binding of C-PAE cells to coated plates by αvβ5 antibody (C-PAE cells [1]; label = plate coating): not inhibited

B2: Tumstatin: NC1 domain of the α3 chain of type IV collagen, residues 1-244 (SEQ ID NO:10) (protein, listed as Homo sapiens)
chain: GLKGKRGDSGSPATWTTRGFVFTRHSQTTAIPSCPEGTVPLYSGFSFLFVQGNQRAHGQDLGTLGSCLQRFTTMPFLFCNVNDVCNFASRNDYSYWLSTPALMPMNMAPITGRALEPYISRCTVCEGPAIAIAVHSQTTDIPPCPHGWISLWKGFSFIMFTSAGSEGTGQALASPGSCLEEFRASPFLECHGRGTCNYYSNSYSFWLASLNPERMFRKPIPSTVKAGELEKIISRCQVCMKKRH
decrease of cell viability (C-PAE cells [2]; 5 μg/ml, 24 hours): 22.5%
decrease of cell viability (C-PAE cells [2]; 10 μg/ml): 60%

B3: Tum-1: residues 54 to 244 of Tumstatin, lacking the N-terminal 53 amino acids (SEQ ID NO:22) (protein)
chain: QRAHGQDLGTLGSCLQRFTTMPFLFCNVNDVCNFASRNDYSYWLSTPALMPMNMAPITGRALEPYISRCTVCEGPAIAIAVHSQTTDIPPCPHGWISLWKGFSFIMFTSAGSEGTGQALASPGSCLEEFRASPFLECHGRGTCNYYSNSYSFWLASLNPERMFRKPIPSTVKAGELEKIISRCQVCMKKRH
modifications: Tum-1 (Tumstatin N-53) (amino acids 54-244 of SEQ ID NO10)
inhibition of attachment of C-PAE cells to coated plates by αvβ3 antibody (C-PAE cells [1]; label = plate coating): 55.9%
inhibition of binding of C-PAE cells to coated plates by αvβ5 antibody (C-PAE cells [1]; label = plate coating): not inhibited
effect on cell viability (C-PAE cells [2]): decreases cell viability in a dose-dependent manner
decrease of cell viability (C-PAE cells [2]; 5 μg/ml, 24 hours): 49.4%

B4: Tum-2: residues 1 to 132 of Tumstatin (SEQ ID NO:23) (protein)
chain: GLKGKRGDSGSPATWTTRGFVFTRHSQTTAIPSCPEGTVPLYSGFSFLFVQGNQRAHGQDLGTLGSCLQRFTTMPFLFCNVNDVCNFASRNDYSYWLSTPALMPMNMAPITGRALEPYISRCTVCEGPAIAI
modifications: Tum-2 (amino acids 1-132 of SEQ ID NO10)
inhibition of attachment of C-PAE cells to coated plates by αvβ3 antibody (C-PAE cells [1]; label = plate coating): 69.8%
inhibition of binding of C-PAE cells to coated plates by αvβ5 antibody (C-PAE cells [1]; label = plate coating): not inhibited

B5: Tumstatin-44-131: residues 44 to 131 of full-length Tumstatin (SEQ ID NO:33) (protein)
chain: FSFLFVQGNQRAHGQDLGTLGSCLQRFTTMPFLFCNVNDVCNFASRNDYSYWLSTPALMPMNMAPITGRALEPYISRCTVCEGPAIAI
modifications: Tumstatin-45-132 (amino acids 45-132 of SEQ ID NO10)
attachment to coated plates in the presence of RGD peptide (CDCRGDCFC) (C-PAE cells [1]; label = plate coating): not inhibited
ED50, decrease of cell viability (C-PAE cells [2]): 12 µg/mL
